Results published in the Human Domainome abundance scans (Beltran et al. 2025).
± gives the uncertainty stated by the source.

B1: POU domain, class 3, transcription factor 4, residues 280 to 335; numbered along this chain, P49335 (parent)
chain: KKRTSIEVSVKGVLETHFLKCPKPAAQEISSLADSLQLEKEVVRVWFCNRRQKEKR
B2: Chromodomain-helicase-DNA-binding protein 3, residues 374 to 426; numbered along this chain, Q12873 (parent)
chain: YETDHQDYCEVCQQGGEIILCDTCPRAYHLVCLDPELDRAPEGKWSCPHCEKE

Variants of: B1
Test: abundance fitness (aPCA) (normalised: wild type 0, dead -1); higher = more abundant; growth selection in yeast, the domain comes from the species named
Details: Homo sapiens
KKRTSIEVSVKGVLETHFLKCPKPAAQEISSLADSLQLEKEVVRVWFCNRRQKEKG [R56G] showed an abundance fitness of -0.325 ± 0.19.
With KKRTSIEVSVKGVLETHFLKCPKPAAQEISSLADSLQLEKEVVRVWFCNRRQKEKY [R56Y] the abundance fitness was -0.144 ± 0.43.
In the case of KKRTSIEVSVKGVLETHFLKCPKPAAQEISSLADSLQLEKEVVRVWFCNRRQKEKE [R56E], the abundance fitness is reported as 0.387 ± 0.2.
In the case of KKRTSIEVSVKGVLETHFLKCPKPAAQEISSLADSLQLEKEVVRVWFCNRRQKEKA [R56A], the abundance fitness is reported as -0.085 ± 0.29.
For KKRTSIEVSVKGVLETHFLKCPKPAAQEISSLADSLQLEKEVVRVWFCNRRQKEKL [R56L], the abundance fitness was -0.075 ± 0.19.
With KKRTSIEVSVKGVLETHFLKCPKPAAQEISSLADSLQLEKEVVRVWFCNRRQKEKT [R56T] the abundance fitness was 0.002 ± 0.39.
With KKRTSIEVSVKGVLETHFLKCPKPAAQEISSLADSLQLEKEVVRVWFCNRRQKEKW [R56W] the abundance fitness was -0.393 ± 0.18.
In the case of KKRTSIEVSVKGVLETHFLKCPKPAAQEISSLADSLQLEKEVVRVWFCNRRQKEKN [R56N], the abundance fitness is reported as 0.38 ± 0.48.
Variant KKRTSIEVSVKGVLETHFLKCPKPAAQEISSLADSLQLEKEVVRVWFCNRRQKEKM [R56M] has an abundance fitness of 0.123 ± 0.24.
With KKRTSIEVSVKGVLETHFLKCPKPAAQEISSLADSLQLEKEVVRVWFCNRRQKEKS [R56S] the abundance fitness was 0.015 ± 0.27.
KKRTSIEVSVKGVLETHFLKCPKPAAQEISSLADSLQLEKEVVRVWFCNRRQTEKR [K53T] showed an abundance fitness of -0.428 ± 0.2.
KKRTSIEVSVKGVLETHFLKCPKPAAQEISSLADSLQLEKEVVRVWFCNRRQWEKR [K53W] showed an abundance fitness of -0.888 ± 0.33.
Work on KKRTSIEVSVKGVLETHFLKCPKPAAQEISSLADSLQLEKEVVRVWFCNRRQYEKR [K53Y] yielded an abundance fitness of -0.616 ± 0.31.
For KKRTSIEVSVKGVLETHFLKCPKPAAQEISSLADSLQLEKEVVRVWFCNRRQSEKR [K53S], the abundance fitness was -0.318 ± 0.15.
Work on KKRTSIEVSVKGVLETHFLKCPKPAAQEISSLADSLQLEKEVVRVWFCNRRQREKR [K53R] yielded an abundance fitness of -0.171 ± 0.15.
Work on KKRTSIEVSVKGVLETHFLKCPKPAAQEISSLADSLQLEKEVVRVWFCNRRQKMKR [E54M] yielded an abundance fitness of -0.819 ± 0.3.
KKRTSIEVSVKGVLETHFLKCPKPAAQEISSLADSLQLEKEVVRVWFCNRRQKLKR [E54L] gave an abundance fitness of -0.787 ± 0.16.
KKRTSIEVSVKGVLETHFLKCPKPAAQEISSLADSLQLEKEVVRVWFCNRRQKTKR [E54T] showed an abundance fitness of -1.06 ± 0.4.
KKRTSIEVSVKGVLETHFLKCPKPAAQEISSLADSLQLEKEVVRVWFCNRRQKQKR [E54Q] gave an abundance fitness of -0.259 ± 0.24.
With KKRTSIEVSVKGVLETHFLKCPKPAAQEISSLADSLQLEKEVVRVWFCNRRQKGKR [E54G] the abundance fitness was -0.808 ± 0.16.
Variant KKRTSIEVSVKGVLETHFLKCPKPAAQEISSLADSLQLEKEVVRVWFCNRRQKWKR [E54W] has an abundance fitness of -0.902 ± 0.25.
KKRTSIEVSVKGVLETHFLKCPKPAAQEISSLADSLQLEKEVVRVWFCNRRQKVKR [E54V] gave an abundance fitness of -0.634 ± 0.17.
Work on KKRTSIEVSVKGVLETHFLKCPKPAAQEISSLADSLQLEKEVVRVWFCNRRQKCKR [E54C] yielded an abundance fitness of -0.897 ± 0.3.
In the case of KKRTSIEVSVKGVLETHFLKCPKPAAQEISSLADSLQLEKEVVRVWFCNRRQKSKR [E54S], the abundance fitness is reported as -0.679 ± 0.18.
Work on KKRTSIEVSVKGVLETHFLKCPKPAAQEISSLADSLQLEKEVVRVWFCNRRQKFKR [E54F] yielded an abundance fitness of -0.836 ± 0.44.
For KKRTSIEVSVKGVLETHFLKCPKPAAQEISSLADSLQLEKEVVRVWFCNRRQKHKR [E54H], the abundance fitness was -0.906 ± 0.33.
Variant KKRTSIEVSVKGVLETHFLKCPKPAAQEISSLADSLQLEKEVVRVWFCNRRQKAKR [E54A] has an abundance fitness of -0.788 ± 0.2.
With KKRTSIEVSVKGVLETHFLKCPKPAAQEISSLADSLQLEKEVVRVWFCNRRQKKKR [E54K] the abundance fitness was -0.591 ± 0.46.
KKRTSIEVSVKGVLETHFLKCPKPAAQEISSLADSLQLEKEVVRVWFCNRRQKEAR [K55A] gave an abundance fitness of -0.1 ± 0.17.
For KKRTSIEVSVKGVLETHFLKCPKPAAQEISSLADSLQLEKEVVRVWFCNRRQKERR [K55R], the abundance fitness was -0.027 ± 0.14.
For KKRTSIEVSVKGVLETHFLKCPKPAAQEISSLADSLQLEKEVVRVWFCNRRQKETR [K55T], the abundance fitness was -0.417 ± 0.2.
In the case of KKRTSIEVSVKGVLETHFLKCPKPAAQEISSLADSLQLEKEVVRVWFCNRRQKEQR [K55Q], the abundance fitness is reported as -0.016 ± 0.48.
Work on KKRTSIEVSVKGVLETHFLKCPKPAAQEISSLADSLQLEKEVVRVWFCNRRQKESR [K55S] yielded an abundance fitness of -0.368 ± 0.17.
Work on KKRTSIEVSVKGVLETHFLKCPKPAAQEISSLADSLQLEKEVVRVWFCNRRQKEDR [K55D] yielded an abundance fitness of -0.223 ± 0.28.
For KKRTSIEVSVKGVLETHFLKCPKPAAQEISSLADSLQLEKEVVRVWFCNRRQKEFR [K55F], the abundance fitness was -0.194 ± 0.32.
For KKRTSIEVSVKGVLETHFLKCPKPAAQEISSLADSLQLEKEVVRVWFCNRRQKEER [K55E], the abundance fitness was -0.259 ± 0.22.
KKRTSIEVSVKGVLETHFLKCPKPAAQEISSLADSLQLEKEVVRVWFCNRRQKECR [K55C] showed an abundance fitness of -0.017 ± 0.21.
Work on KKRTSIEVSVKGVLETHFLKCPKPAAQEISSLADSLQLEKEVVRVWFCNRRQKEMR [K55M] yielded an abundance fitness of -0.264 ± 0.26.
With KKRTSIEVSVKGVLETHFLKCPKPAAQEISSLADSLQLEKEVVRVWFCNRRQKEGR [K55G] the abundance fitness was -0.392 ± 0.13.
Work on KKRTSIEVSVKGVLETHFLKCPKPAAQEISSLADSLQLEKEVVRVWFCNRRQKENR [K55N] yielded an abundance fitness of -0.147 ± 0.22.
Work on KKRTSIEVSVKGVLETHFLKCPKPAAQEISSLADSLQLEKEVVRVWFCNRRQKEIR [K55I] yielded an abundance fitness of -0.604 ± 0.27.
With KKRTSIEVSVKGVLETHFLKCPKPAAQEISSLADSLQLEKEVVRVWFCNRRQKEPR [K55P] the abundance fitness was -0.764 ± 0.33.
KKRTSIEVSVKGVLETHFLKCPKPAAQEISSLADSLQLEKEVVRVWFCNRRQKEYR [K55Y] showed an abundance fitness of -0.259 ± 0.24.
KKRTSIEVSVKGVLETHFLKCPKPAAQEISSLADSLQLEKEVVRVWFCNRRQKEVR [K55V] showed an abundance fitness of -0.069 ± 0.13.
KKRTSIEVSVKGVLETHFLKCPKPAAQEISSLADSLQLEKEVVRVWFCNRRQKEWR [K55W] showed an abundance fitness of -0.497 ± 0.24.

Variants of: B2
Test: as above
Details: Homo sapiens
Y8V gave an abundance fitness of 0.053 ± 0.1.
In the case of Y8H, the abundance fitness is reported as 0.461 ± 0.13.
Y8G gave an abundance fitness of 0.165 ± 0.094.
Y8K showed an abundance fitness of 0.141 ± 0.12.
In the case of Y8N, the abundance fitness is reported as 0.061 ± 0.16.
Y8Q showed an abundance fitness of 0.499 ± 0.12.
Variant Y8A has an abundance fitness of 0.207 ± 0.11.
Y8S showed an abundance fitness of -0.026 ± 0.092.
In the case of Y8F, the abundance fitness is reported as 0.083 ± 0.23.
Variant Y8I has an abundance fitness of 0.21 ± 0.21.
Y8P showed an abundance fitness of 0.302 ± 0.11.
Variant Y8W has an abundance fitness of -0.086 ± 0.12.
In the case of Y8T, the abundance fitness is reported as -0.118 ± 0.1.
Y8R gave an abundance fitness of 0.25 ± 0.079.
Work on Y8E yielded an abundance fitness of 0.098 ± 0.12.
Work on Y8C yielded an abundance fitness of -0.211 ± 0.18.
With Y8L the abundance fitness was 0.215 ± 0.095.
For D7E, the abundance fitness was -0.263 ± 0.25.
With D7G the abundance fitness was -0.055 ± 0.14.
D7H gave an abundance fitness of -0.012 ± 0.24.
With D7N the abundance fitness was 0.044 ± 0.1.
With D7W the abundance fitness was -0.767 ± 0.33.
D7S showed an abundance fitness of -0.154 ± 0.11.
D7A gave an abundance fitness of 0.043 ± 0.17.
D7Y showed an abundance fitness of -0.522 ± 0.23.
D7M showed an abundance fitness of -0.105 ± 0.29.
Work on D7P yielded an abundance fitness of 0.134 ± 0.26.
D7Q gave an abundance fitness of -0.146 ± 0.26.
In the case of D7F, the abundance fitness is reported as -0.37 ± 0.22.
D7R gave an abundance fitness of -0.289 ± 0.13.
In the case of D7L, the abundance fitness is reported as -0.727 ± 0.22.
D7T gave an abundance fitness of -0.036 ± 0.19.
Work on D7K yielded an abundance fitness of -0.044 ± 0.15.
Work on D7V yielded an abundance fitness of -0.083 ± 0.15.
Variant D4M has an abundance fitness of 0.438 ± 0.11.
In the case of D4V, the abundance fitness is reported as 0.166 ± 0.08.
In the case of D4G, the abundance fitness is reported as -0.001 ± 0.091.
D4N gave an abundance fitness of -0.406 ± 0.15.
Variant D4I has an abundance fitness of -0.156 ± 0.15.
D4H showed an abundance fitness of -0.136 ± 0.22.
In the case of D4T, the abundance fitness is reported as 0.079 ± 0.12.
In the case of D4R, the abundance fitness is reported as -0.203 ± 0.11.
With D4K the abundance fitness was -0.041 ± 0.15.
Work on D4A yielded an abundance fitness of 0.133 ± 0.085.
In the case of D4F, the abundance fitness is reported as -0.055 ± 0.12.
Work on D4L yielded an abundance fitness of 0.077 ± 0.086.
D4W showed an abundance fitness of -0.088 ± 0.13.
For D4Y, the abundance fitness was -0.126 ± 0.24.
In the case of D4Q, the abundance fitness is reported as 0.075 ± 0.13.
D4C gave an abundance fitness of -0.066 ± 0.18.
In the case of T3I, the abundance fitness is reported as -0.035 ± 0.14.
Work on T3K yielded an abundance fitness of 0.363 ± 0.12.
In the case of T3Q, the abundance fitness is reported as -0.069 ± 0.15.
Work on T3Y yielded an abundance fitness of 0.113 ± 0.14.
Variant T3R has an abundance fitness of 0.206 ± 0.082.
T3F gave an abundance fitness of 0.236 ± 0.14.
T3H showed an abundance fitness of -0.481 ± 0.22.
In the case of T3G, the abundance fitness is reported as 0.136 ± 0.1.
With T3P the abundance fitness was -0.09 ± 0.12.
With T3W the abundance fitness was 0.13 ± 0.13.
For T3C, the abundance fitness was -0.048 ± 0.12.
In the case of T3A, the abundance fitness is reported as -0.179 ± 0.1.
T3D showed an abundance fitness of -0.163 ± 0.15.
With T3M the abundance fitness was 0.377 ± 0.11.
